These results are taken from article PMC11366018.

The target in the experiment is S2A4 (human). Briefly: BLI. A general note: BLI is a label-free optical method that tracks binding on a fibre tip over time.

Broadly, the Kd is the equilibrium constant for the complex coming apart.

Sequence of S2A4 (human) (heavy, as listed by the source, chain 1 of 2): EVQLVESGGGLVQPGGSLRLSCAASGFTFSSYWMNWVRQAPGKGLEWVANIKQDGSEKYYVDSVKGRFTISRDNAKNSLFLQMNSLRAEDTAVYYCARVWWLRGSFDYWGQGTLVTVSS
Sequence of S2A4 (human) (light, as listed by the source, chain 2 of 2): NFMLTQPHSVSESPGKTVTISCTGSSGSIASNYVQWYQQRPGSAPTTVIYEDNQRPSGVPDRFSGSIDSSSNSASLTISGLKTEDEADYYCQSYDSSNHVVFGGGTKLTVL

As for “Omicron-(L371S+F375S) RBD (from UniProt P0DTC2 319-541) (domain or fragment)”, the dissociation constant Kd was determined as 75.2 nM. Regarding “Omicron-(L371S+P373S) RBD (from UniProt P0DTC2 319-541) (domain or fragment)”, the Kd is 89.4 nM. The value for “Omicron-(P373S+F375S) RBD (from UniProt P0DTC2 319-541) (domain or fragment)” was 38.6 nM.
